Experimental data published in publication PMC10889842.

Target: StBIN2 (Brassinolide insensitive 2 of potato), fused to nLUC (Solanum tuberosum (potato))
Experiment: split reporter (BiFC, NanoBiT); luciferase complementation in infiltrated tobacco leaves; LUC enzyme activity detected with a dual luciferase reporter assay kit (Vazyme); three biological repeats

Substance | LUC enzyme activity, fold over the negative control
StSnRK2.2, fused to cLUC (natural protein) | > 5 fold
StCCJ9 (a homolog of peroxidase AtPER12), fused to cLUC (enzyme) | 5 fold
